Data from IntAct's records for PubMed 25613572.

B1: Chromo domain-containing protein rhino (Drosophila melanogaster (Fruit fly)), Q7JXA8 (parent)
chain: MSRNHQRPNLGLVDAPPNDHVEEYVVEKILGKRFVNGRPQVLVKWSGFPNENNTWEPLENVGNCMKLVSDFESEVFRLHRKAAAKSVGKSKSSPSSSGPLITENGPSSSKKTQQHSKSVQAKNTAGMSKMNQKKGKNIKKTAGKIKDIENYPKTQMPSTSQVSTDSTEVFDGNPSATTTNMIKSPRIQSLFSDLNLIEPTKDKDVGDTSLKTPPKSRRLIEFPQREDAPLSSKHVSPMLIRKESQPLQSSCTDDSDLGESSSSMSLPTVSSTSSEKSIKVTKSEPKTLGQIKFSSRSSDGGHAASSLGAPKEGDIGLDLSGSDSMDSEVESMRRCPRRKRKKTYPDWKFPEMTKPFGVNRGLDLDKILHCYQMNDDLFMFVTWKGCSSIDAVHINDIKEAYPLQIIKYFESLRIIVPK

Variants of: B1
Settings: with h31_human H3C1, P68431

Row | Variant | effect of a mutation on the interaction
1 | W45A | disrupting interaction
2 | F48A | disrupting interaction
3 | F34A;F76A | decreasing interaction strength
